Measurements published in US12258605B2, “Alkane oxidation by modified hydroxylases” (The California Institute of Technology, priority 2005, dated 2025).

B1: Wild-type BM-3: wild-type cytochrome P450 BM-3 from Bacillus megaterium, SEQ ID NO:1 (protein, listed as Bacillus megaterium)
chain: TIKEMPQPKTFGELKNLPLLNTDKPVQALMKIADELGEIFKFEAPGRVTRYLSSQRLIKEACDESRFDKNLSQALKFVRDFAGDGLFTSWTHEKNWKKAHNILLPSFSQQAMKGYHAMMVDIAVQLVQKWERLNADEHIEVPEDMTRLTLDTIGLCGFNYRFNSFYRDQPHPFITSMVRALDEAMNKLQRANPDDPAYDENKRQFQEDIKVMNDLVDKIIADRKASGEQSDDLLTHMLNGKDPETGEPLDDENIRYQIITFLIAGHETTSGLLSFALYFLVKNPHVLQKAAEEAARVLVDPVPSYKQVKQLKYVGMVLNEALRLWPTAPAFSLYAKEDTVLGGEYPLEKGDELMVLIPQLHRDKTIWGDDVEEFRPERFENPSAIPQHAFKPFGNGQRACIGQQFALHEATLVLGMMLKHFDFEDHTNYELDIKETLTLKPEGFVVKAKSKKIPLGGIPSPSTEQSAKKVRKKAENAHNTPLLVLYGSNMGTAEGTARDLADIAMSKGFAPQVATLDSHAGNLPREGAVLIVTASYNGHPPDNAKQFVDWLDQASADEVKGVRYSVFGCGDKNWATTYQKVPAFIDETLAAKGAENIADRGEADASDDFEGTYEEWREHMWSDVAAYFNLDIENSEDNKSTLSLQFVDSAADMPLAKMHGAFSTNVVASKELQQPGSARSTRHLEIELPKEASYQEGDHLGVIPRNYEGIVNRVTARFGLDASQQIRLEAEEEKLAHLPLAKTVSVEELLQYVELQDPVTRTQLRAMAAKTVCPPHKVELEALLEKQAYKEQVLAKRLTMLELLEKYPACEMKFSEFIALLPSIRPRYYSISSSPRVDEKQASITVSVVSGEAWSGYGEYKGIASNYLAELQEGDTITCFISTPQSEFTLPKDPETPLIMVGPGTGVAPFRGFVQARKQLKEQGQSLGEAHLYFGCRSPHEDYLYQEELENAQSEGIITLHTAFSRMPNQPKTYVQHVMEQDGKKLIELLDQGAHFYICGDGSQMAPAVEATLMKSYADVHQVSEADARLWLQQLEEKGRYAKDVWAG
B2: 35-E11: P450 BM-3 variant, SEQ ID NO:7: 53-5H substitutions plus E464G and I710T (protein)
chain: TIKEMPQPKTFGELKNLPLLNTDKPVQALMKIADELGEIFKFEAPGCVTRYLSSQRLIKEACDESRFDKNLSQALKFFRDFSGDGLFTSWTHEINWKKAHNILLPSFSQQAMKGYHAMMVDIAVQLVQKWERLNADEHIEVSEDMTRLTLDTIGLCGFNYRFNSFYRDQPHPFIISMVRALDEVMNKLQRANPDDPAYDENKRQCQEDIKVMNDLVDKIIADRKARGEQSDDLLTQMLNGKDPETGEPLDDGNISYQIITFLIAGHETTSGLLSFALYFLVKNPHVLQKVVEEAARVLVDPVPSYKQVKQLKYVGMVLNEALRLWPTFPAFSLYAKEDTVLGGEYPLEKGDEVMVLIPQLHRDKTIWGDDVEEFRPERFENPSAIPQHAFKPFGNGQRACIGQQFALHEATLVLGMMLKHFDFEDHTNYELDIKETLTLKPEGFVVKAKSKKIPLGGIPSPSTGQSAKKVRKKAENAHNTPLLVLYGSNMGTAEGTARDLADIAMSKGFAPQVATLDSHAGNLPREGAVLIVTASYNGHPPDNAKQFVDWLDQASADEVKGVRYSVFGCGDKNWATTYQKVPAFIDETLAAKGAENIADRGEADASDDFEGTYEEWREHMWSDVAAYFNLDIENSEDNKSTLSLQFVDSAADMPLAKMHGAFSTNVVASKELQQPGSARSTRHLEIELPKEASYQEGDHLGVIPRNYEGTVNRVTARFGLDASQQIRLEAEEEKLAHLPLAKTVSVEELLQYVELQDPVTRTQLRAMAAKTVCPPHKVELEALLEKQAYKEQVLAKRLTMLELLEKYPACEMKFSEFIALLPSIRPRYYSISSSPRVDEKQASITVSVVSGEAWSGYGEYKGIASNYLAELQEGDTITCFISTPQSEFTLPKDPETPLIMVGPGTGVAPFRGFVQARKQLKEQGQSLGEAHLYFGCRSPHEDYLYQEELENAQSEGIITLHTAFSRMPNQPKTYVQHVMEQDGKKLIELLDQGAHFYICGDGSQMAPAVEATLMKSYADVHQVSEADARLWLQQLEEKGRYAKDVWAG
modifications: mutant P450 35-E11 protein sequence

Legend:
[1] = lauric acid; cited from earlier work
[2] = Ethane hydroxylation to ethanol (rate, total turnover); format: biochemical
Description: Ethane hydroxylation by 53-5H was measured after 12-hour incubations of the enzyme in ethane-saturated buffer containing an ethanol-free NADPH regeneration system (commercial NADPH contains 2-3% ethanol). While the reaction is uncoupled to NADPH oxidation in the presence of ethane (660 min-1, see Table 2), 53-5H nevertheless consistently produces at least 50 equivalents of ethanol independent of the starting concentration of enzyme (see FIGS. 2 and 3). Over oxidation was tested by supplying ethanol as a substrate and monitoring ethanol depletion by gas chromatography and the production of acetaldehyde and acetic acid by ^13C NMR using ^13C-labeled ethanol. No (i.e. less than 10%, the detection limit of these experiments) over oxidation products were detected in these experiments (see FIG. 4). In general, the hydrophobic active sites in P450s assist in the release of singly-hydroxylated products.
Reactions on ethane were carried out similarly to those described for propane (Peters et al., J. Am. Chem. Soc. 125:13442 (2003); incorporated by reference herein). Because commercially-available NADPH contains 2-3% ethanol, an NADPH regeneration system was used. Thereby, the background ethanol concentration was reduced to approximately 1 μM. Ethane hydroxylation reactions were performed in 20 mL glass vials. A 5.0 mL reaction mixture contained 100, 200 or 500 nM purified protein in 0.1 M potassium phosphate buffer (pH 8.0) saturated with ethane and dioxygen. […] The vial was immediately topped with a septum, pressurized with 20 psi of ethane and stirred at 25° C. For determination of total turnover, the reaction was allowed to proceed for four hours. For rate determination the reaction was stopped at 0, 15 and 30 min. 50 μL of 5 mM 1-butanol was added to the reaction mixture as an internal standard. Ethanol and 1-butanol were subsequently derivatized to their corresponding alkyl nitrites. Control reactions were performed by repeating these steps without substrate and with inactivated protein, to correct for background levels of ethanol. […] Reactions with ethane and corresponding control reactions without ethane or with inactivated protein were carried out in triplicate. […]
Rates of ethanol formation were measured over 30 min using gas chromatography (GC) coupled to an electron capture detector (ECD) and are reported as nmol ethanol/min/nmol enzyme. […] Total turnover number (ttn) was measured using GC after completion of the reaction and is reported as nmol product/nmol protein. […] Initial rates of propanol and octanol formation were measured over 1 min by GC and are reported as nmol product/min/nmol protein. […] The “ee” of 2-octanol (main product) was measured by GC; the favored enantiomer is listed in parenthesis. […]

[3] = NADPH oxidation/consumption rates and coupling efficiency; format: biochemical
Description: NADPH oxidation rates were measured over 20 s at 25° C. using a BioSpec-1601 UV-Vis spectrophotometer (Shimadzu, Columbia, MD) and 1 cm pathlength cuvettes. […] The reaction was initiated by the addition of NADPH and the decrease in absorption at 340 nm was monitored. NADPH consumption rates were also measured without substrate (see Table 2).
The coupling efficiency is estimated from product formation rate/NADPH oxidation rate. In general, NADPH oxidation rates cannot be measured on the same time scale as ethanol formation rates.
For the data shown in Table 6 the initial NADPH consumption rates were measured over 15 seconds at 340 nm as nmol NADPH/min/nmol protein. Octane reactions contained 100 nM P450, 166 uM NADPH, and 4 mM octane in 1% ethanol and potassium phosphate buffer. […] Errors are at most 10%. Initial rates were measured by GC over 1 minute as nmol total products/min/nmol protein. Octane reactions contained 100 nM P450, 500 uM NADPH, and 4 mM octane in 1% ethanol and potassium phosphate buffer. Propane reactions contained 1 uM P450, 500 uM NADPH, and propane-saturated potassium phosphate buffer. Coupling was determined by ratio of product formation rate to NADPH consumption rate. Total turnover numbers were determined as nmol product/nmol enzyme. Octane reactions contained 10-25 nM P450, 500 uM NADPH, and 4 mM octane in 1% ethanol and potassium phosphate buffer. Propane reactions contained 10-25 nM protein, potassium phosphate buffer saturated with propane, and an NADPH regeneration system containing 100 uM NADP+, 2 U/mL isocitrate dehydrogenase, and 10 mM isocitrate.
For Table 13, total turnover numbers were determined as nmol product/nmol protein. […] The rates of product formation were measured by GC over 20 s as nmol total products/min/nmol protein. The reactions contained P450 (200 nM), NADPH (500 μM) and octane (2 mM) in ethanol (2%) and potassium phosphate buffer (0.1 M, pH 8.0). The rates of NADPH oxidation were measured over 20 s at 340 nm as nmol NADPH/min/nmol protein. The reactions contained P450 (200 nM), NADPH (160 μM), and octane (2 mM) in ethanol (2%) and potassium phosphate buffer (0.1 M, pH 8.0). The background NADPH oxidation rate (without substrate) rate was 220/min. The coupling efficiency is the ratio of product formation rate to NADPH oxidation rate.
The activity of BM-3-A328V on CM and other substrates such as HME, DME, and propane was further investigated by measuring product formation rate, cofactor consumption and coupling efficiency (Table 14). This mutant was also found to be capable to hydroxylate ethane to ethanol, although only for a total of about 5-10 turnovers. In Table 14 “consumption” rates are expressed as nmol NADPH/nmol enzyme/min and “product formation” rates are expressed as nmol product/nmol enzyme/min.

Molecule	hydroxylation at the ω-1 position [1] [%]	ethanol produced ([2]; 200 nM of mutant, typical reaction with ethane)	Ethane ttn ([2]; after completion of the reaction) [nmol product/nmol protein]	increase in total turnover of ethane to ethanol ([2]; compared to 53-5H)	Ethane Rate ([2]; ethanol formation over 30 min, GC-ECD, dash = no activity)	Coupling efficiency ([3]; Octane) [%]	NADPH oxidation rate ([3]; ethane) [min⁻¹]	Coupling efficiency ([3]; ethane, product formation rate/NADPH oxidation rate) [%]	NADPH oxidation rate ([3]; no substrate) [min⁻¹]	NADPH oxidation rate ([3]; octane, 1% ethanol) [min⁻¹]	Coupling efficiency ([3]; propane) [%]	NADPH oxidation rate ([3]; propane) [min⁻¹]
B1	48	–	–	–	–	–	–	–	–	–	–	–
B2	–	over 50 μM	250	five-fold	0.4 nmol ethanol/min/nmol enzyme	64	~520	0.08	390	660	26	800
